Test results from publication PMC10786891, “Massively parallel profiling of RNA-targeting CRISPR-Cas13d”.

T1: EsCas13d, nuclease-dead (Eubacterium siraeum, UniProt B0MS50, R295A;H300A;R849A;H854A)
T1 sequence: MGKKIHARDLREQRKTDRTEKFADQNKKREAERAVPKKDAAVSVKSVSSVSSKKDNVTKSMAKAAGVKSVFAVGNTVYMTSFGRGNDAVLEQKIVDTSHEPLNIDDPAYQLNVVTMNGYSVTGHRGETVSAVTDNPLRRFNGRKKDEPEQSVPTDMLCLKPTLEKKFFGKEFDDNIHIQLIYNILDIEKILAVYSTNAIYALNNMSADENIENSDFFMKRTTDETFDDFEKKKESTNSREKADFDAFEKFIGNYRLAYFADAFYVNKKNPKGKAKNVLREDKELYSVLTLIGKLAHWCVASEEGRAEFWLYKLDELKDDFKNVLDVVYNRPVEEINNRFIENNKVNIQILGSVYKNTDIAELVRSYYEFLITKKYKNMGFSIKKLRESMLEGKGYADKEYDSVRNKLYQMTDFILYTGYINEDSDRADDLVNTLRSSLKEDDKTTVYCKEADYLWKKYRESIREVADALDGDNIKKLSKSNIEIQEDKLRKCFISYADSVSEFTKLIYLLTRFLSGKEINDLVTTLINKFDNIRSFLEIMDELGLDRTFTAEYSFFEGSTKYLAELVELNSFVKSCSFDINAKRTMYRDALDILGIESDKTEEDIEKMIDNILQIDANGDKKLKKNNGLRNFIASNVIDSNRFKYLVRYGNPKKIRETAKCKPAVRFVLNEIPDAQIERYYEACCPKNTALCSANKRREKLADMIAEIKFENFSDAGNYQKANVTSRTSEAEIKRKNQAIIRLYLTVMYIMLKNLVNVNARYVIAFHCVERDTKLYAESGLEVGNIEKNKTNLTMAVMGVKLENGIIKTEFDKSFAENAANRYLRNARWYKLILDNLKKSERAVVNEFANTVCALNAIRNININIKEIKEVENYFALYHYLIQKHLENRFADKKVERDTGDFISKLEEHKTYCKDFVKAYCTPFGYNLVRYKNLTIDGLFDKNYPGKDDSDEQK

B1: target 1 G5C,A9G (mixed)
RNA 1: CACCCGUGCAAAAAUGCAGGGGUCUAAAACUGAGCGGAUAACCUCUCUAUGG
RNA 2: GGGAAUGGAUCCACAUCUACGAAUUCGUACCAUAGAGAGGUUGUCCCCUCACCGAGAUCGGAAGAGCACACGU
B2: target 1 insC 3' of 17,insG 3' of 2 (mixed)
RNA 1: CACCCGUGCAAAAAUGCAGGGGUCUAAAACUGAGCGGAUAACCUCUCUAUGG
RNA 2: GGGAAUGGAUCCACAUCUACGAAUUCGUACCAUAGCAGAGGUUAUCCGCUCGACCGAGAUCGGAAGAGCACACGU
B3: target 1 C4A,U8C (mixed)
RNA 1: CACCCGUGCAAAAAUGCAGGGGUCUAAAACUGAGCGGAUAACCUCUCUAUGG
RNA 2: GGGAAUGGAUCCACAUCUACGAAUUCGUACCAUAGAGAGGUUACCCGAUCACCGAGAUCGGAAGAGCACACGU
B4: target 1 U8G,C22U (mixed)
RNA 1: CACCCGUGCAAAAAUGCAGGGGUCUAAAACUGAGCGGAUAACCUCUCUAUGG
RNA 2: GGGAAUGGAUCCACAUCUACGAAUUCGUAUCAUAGAGAGGUUAGCCGCUCACCGAGAUCGGAAGAGCACACGU
B5: target 1 insU 3' of 13,insC 3' of 13 (mixed)
RNA 1: CACCCGUGCAAAAAUGCAGGGGUCUAAAACUGAGCGGAUAACCUCUCUAUGG
RNA 2: GGGAAUGGAUCCACAUCUACGAAUUCGUACCAUAGAGAGUCGUUAUCCGCUCACCGAGAUCGGAAGAGCACACGU
B6: target 1 insU 3' of 20,insG 3' of 16 (mixed)
RNA 1: CACCCGUGCAAAAAUGCAGGGGUCUAAAACUGAGCGGAUAACCUCUCUAUGG
RNA 2: GGGAAUGGAUCCACAUCUACGAAUUCGUACCAUUAGAGGAGGUUAUCCGCUCACCGAGAUCGGAAGAGCACACGU
B7: target 1 insU 3' of 6,insU 3' of 6 (mixed)
RNA 1: CACCCGUGCAAAAAUGCAGGGGUCUAAAACUGAGCGGAUAACCUCUCUAUGG
RNA 2: GGGAAUGGAUCCACAUCUACGAAUUCGUACCAUAGAGAGGUUAUCCUUGCUCACCGAGAUCGGAAGAGCACACGU
B8: target 1 insU 3' of 7,insU 3' of 5 (mixed)
RNA 1: CACCCGUGCAAAAAUGCAGGGGUCUAAAACUGAGCGGAUAACCUCUCUAUGG
RNA 2: GGGAAUGGAUCCACAUCUACGAAUUCGUACCAUAGAGAGGUUAUCUCGUCUCACCGAGAUCGGAAGAGCACACGU
B9: target 1 insU 3' of 12,insC 3' of 10 (mixed)
RNA 1: CACCCGUGCAAAAAUGCAGGGGUCUAAAACUGAGCGGAUAACCUCUCUAUGG
RNA 2: GGGAAUGGAUCCACAUCUACGAAUUCGUACCAUAGAGAGGUUUCAUCCGCUCACCGAGAUCGGAAGAGCACACGU
B10: target 1 C7G,A20C (mixed)
RNA 1: CACCCGUGCAAAAAUGCAGGGGUCUAAAACUGAGCGGAUAACCUCUCUAUGG
RNA 2: GGGAAUGGAUCCACAUCUACGAAUUCGUACCCUAGAGAGGUUAUGCGCUCACCGAGAUCGGAAGAGCACACGU
B11: target 1 G15A,U19C (mixed)
RNA 1: CACCCGUGCAAAAAUGCAGGGGUCUAAAACUGAGCGGAUAACCUCUCUAUGG
RNA 2: GGGAAUGGAUCCACAUCUACGAAUUCGUACCACAGAAAGGUUAUCCGCUCACCGAGAUCGGAAGAGCACACGU
B12: target 1 insC 3' of 15,insU 3' of 9 (mixed)
RNA 1: CACCCGUGCAAAAAUGCAGGGGUCUAAAACUGAGCGGAUAACCUCUCUAUGG
RNA 2: GGGAAUGGAUCCACAUCUACGAAUUCGUACCAUAGAGCAGGUUAUUCCGCUCACCGAGAUCGGAAGAGCACACGU
B13: target 1 U8C,A14G (mixed)
RNA 1: CACCCGUGCAAAAAUGCAGGGGUCUAAAACUGAGCGGAUAACCUCUCUAUGG
RNA 2: GGGAAUGGAUCCACAUCUACGAAUUCGUACCAUAGAGGGGUUACCCGCUCACCGAGAUCGGAAGAGCACACGU
B14: target 1 del9,del22 (mixed)
RNA 1: CACCCGUGCAAAAAUGCAGGGGUCUAAAACUGAGCGGAUAACCUCUCUAUGG
RNA 2: GGGAAUGGAUCCACAUCUACGAAUUCGUACAUAGAGAGGUUUCCGCUCACCGAGAUCGGAAGAGCACACGU
B15: target 1 U11C,G13U (mixed)
RNA 1: CACCCGUGCAAAAAUGCAGGGGUCUAAAACUGAGCGGAUAACCUCUCUAUGG
RNA 2: GGGAAUGGAUCCACAUCUACGAAUUCGUACCAUAGAGAUGCUAUCCGCUCACCGAGAUCGGAAGAGCACACGU
B16: target 1 insU 3' of 20,insU 3' of 9 (mixed)
RNA 1: CACCCGUGCAAAAAUGCAGGGGUCUAAAACUGAGCGGAUAACCUCUCUAUGG
RNA 2: GGGAAUGGAUCCACAUCUACGAAUUCGUACCAUUAGAGAGGUUAUUCCGCUCACCGAGAUCGGAAGAGCACACGU
B17: target 1 A9G,A16C (mixed)
RNA 1: CACCCGUGCAAAAAUGCAGGGGUCUAAAACUGAGCGGAUAACCUCUCUAUGG
RNA 2: GGGAAUGGAUCCACAUCUACGAAUUCGUACCAUAGCGAGGUUGUCCGCUCACCGAGAUCGGAAGAGCACACGU
B18: target 1 G13U,C22A (mixed)
RNA 1: CACCCGUGCAAAAAUGCAGGGGUCUAAAACUGAGCGGAUAACCUCUCUAUGG
RNA 2: GGGAAUGGAUCCACAUCUACGAAUUCGUAACAUAGAGAUGUUAUCCGCUCACCGAGAUCGGAAGAGCACACGU
B19: target 1 insC 3' of 22,insC 3' of 15 (mixed)
RNA 1: CACCCGUGCAAAAAUGCAGGGGUCUAAAACUGAGCGGAUAACCUCUCUAUGG
RNA 2: GGGAAUGGAUCCACAUCUACGAAUUCGUACCCAUAGAGCAGGUUAUCCGCUCACCGAGAUCGGAAGAGCACACGU
B20: target 1 insG 3' of 18,insG 3' of 16 (mixed)
RNA 1: CACCCGUGCAAAAAUGCAGGGGUCUAAAACUGAGCGGAUAACCUCUCUAUGG
RNA 2: GGGAAUGGAUCCACAUCUACGAAUUCGUACCAUAGGAGGAGGUUAUCCGCUCACCGAGAUCGGAAGAGCACACGU
B21: target 1 insU 3' of 14,insU 3' of 6 (mixed)
RNA 1: CACCCGUGCAAAAAUGCAGGGGUCUAAAACUGAGCGGAUAACCUCUCUAUGG
RNA 2: GGGAAUGGAUCCACAUCUACGAAUUCGUACCAUAGAGAUGGUUAUCCUGCUCACCGAGAUCGGAAGAGCACACGU
B22: target 1 C4A,C7U (mixed)
RNA 1: CACCCGUGCAAAAAUGCAGGGGUCUAAAACUGAGCGGAUAACCUCUCUAUGG
RNA 2: GGGAAUGGAUCCACAUCUACGAAUUCGUACCAUAGAGAGGUUAUUCGAUCACCGAGAUCGGAAGAGCACACGU
B23: target 1 insA 3' of 17,insA 3' of 11 (mixed)
RNA 1: CACCCGUGCAAAAAUGCAGGGGUCUAAAACUGAGCGGAUAACCUCUCUAUGG
RNA 2: GGGAAUGGAUCCACAUCUACGAAUUCGUACCAUAGAAGAGGUAUAUCCGCUCACCGAGAUCGGAAGAGCACACGU
B24: target 1 insU 3' of 17,insA 3' of 10 (mixed)
RNA 1: CACCCGUGCAAAAAUGCAGGGGUCUAAAACUGAGCGGAUAACCUCUCUAUGG
RNA 2: GGGAAUGGAUCCACAUCUACGAAUUCGUACCAUAGUAGAGGUUAAUCCGCUCACCGAGAUCGGAAGAGCACACGU
B25: target 1 complement block 10-12 (mixed)
RNA 1: CACCCGUGCAAAAAUGCAGGGGUCUAAAACUGAGCGGAUAACCUCUCUAUGG
RNA 2: GGGAAUGGAUCCACAUCUACGAAUUCGUACCAUAGAGAGCAAAUCCGCUCACCGAGAUCGGAAGAGCACACGU
B26: target 1 insA 3' of 10,insC 3' of 5 (mixed)
RNA 1: CACCCGUGCAAAAAUGCAGGGGUCUAAAACUGAGCGGAUAACCUCUCUAUGG
RNA 2: GGGAAUGGAUCCACAUCUACGAAUUCGUACCAUAGAGAGGUUAAUCCGCCUCACCGAGAUCGGAAGAGCACACGU
B27: target 1 G5U,C6U (mixed)
RNA 1: CACCCGUGCAAAAAUGCAGGGGUCUAAAACUGAGCGGAUAACCUCUCUAUGG
RNA 2: GGGAAUGGAUCCACAUCUACGAAUUCGUACCAUAGAGAGGUUAUCUUCUCACCGAGAUCGGAAGAGCACACGU
B28: target 1 insC 3' of 12,insG 3' of 10 (mixed)
RNA 1: CACCCGUGCAAAAAUGCAGGGGUCUAAAACUGAGCGGAUAACCUCUCUAUGG
RNA 2: GGGAAUGGAUCCACAUCUACGAAUUCGUACCAUAGAGAGGCUUGAUCCGCUCACCGAGAUCGGAAGAGCACACGU

Each binder was assayed against T1, EsCas13d, nuclease-dead (assay: crRNA (strand 1, pre-loaded); Mg2+; 40 mM Tris-HCl pH 7.5, 150 mM NaCl, 6 mM MgCl2, 1 mM DTT, 0.1% Tween-20, 0.2 mg/ml BSA; 25 C; 10 min per concentration, then washed). Conditions: tags: His6-TwinStrep-SUMO cleaved; N-terminal SNAP kept (SNAP-Surface 488); label: 3' end held by stalled T7 RNA polymerase.
B1 was tested, and the Kd was 8.9 ± 0.5 nM. B2 was tested, and the Kd was about 38 nM. In the case of B3, the Kd is reported as 5.2 ± 0.6 nM. B4 showed a Kd of 29.7 ± 2.6 nM. With B5 the Kd was 8.6 ± 0.5 nM. In the case of B6, the Kd is reported as 36 ± 4 nM. With B7 the Kd was 11.7 ± 0.7 nM. B8 showed a Kd of 14.5 ± 0.5 nM. Work on B9 yielded a Kd of 45 ± 6 nM. With B10 the Kd was 86 ± 30 nM. B11 showed a Kd of 61 ± 20 nM. B12 gave a Kd of 14.4 ± 0.8 nM. B13 was tested, and the Kd was 25.7 ± 2 nM. B14 was tested, and the Kd was 69 ± 9 nM. B15 was tested, and the Kd was 60 ± 10 nM. B16 showed a Kd of 20.5 ± 1.2 nM. B17 was tested, and the Kd was 36.4 ± 1.8 nM. With B18 the Kd was 63 ± 27 nM. B19 gave a Kd of 40 ± 7 nM. For B20, the Kd was 55 ± 9 nM. In the case of B21, the Kd is reported as 61 ± 8 nM. B22 showed a Kd of 3.39 ± 0.26 nM. Binder B23 has a Kd of 24.5 ± 1.7 nM. B24 was tested, and the Kd was 25.2 ± 3.4 nM. B25 gave a Kd of 6.8 ± 0.4 nM. For B26, the Kd was 10.1 ± 0.5 nM. Binder B27 has a Kd of 48 ± 4 nM. In the case of B28, the Kd is reported as 12.3 ± 0.5 nM.
